# Test results: patent US20150344570A1 (published 2015)
# T1: FcγRIIa R (FcγRIIa allotype with Arg at position 131), extracellular domain with C-terminal His tag (human, UniProt P12318 34-217)
# T1 construct: extracellular domain; made in FreeStyle293 cells; analyte in the Biacore assay; also called FcγRIIa type R; 2aR
# T1 sequence (looked up): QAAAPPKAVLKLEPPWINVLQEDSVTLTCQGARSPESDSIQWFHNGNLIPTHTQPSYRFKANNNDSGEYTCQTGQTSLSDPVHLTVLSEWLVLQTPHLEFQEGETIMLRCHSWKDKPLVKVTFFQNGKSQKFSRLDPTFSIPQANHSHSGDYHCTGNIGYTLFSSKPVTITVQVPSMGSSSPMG
# T2: FcγRIIb, extracellular domain with C-terminal His tag (human, UniProt P31994 43-217)
# T2 construct: extracellular domain; made in FreeStyle293 cells; analyte in the Biacore assay; also called 2b; FcgRIIb
# T2 sequence (looked up): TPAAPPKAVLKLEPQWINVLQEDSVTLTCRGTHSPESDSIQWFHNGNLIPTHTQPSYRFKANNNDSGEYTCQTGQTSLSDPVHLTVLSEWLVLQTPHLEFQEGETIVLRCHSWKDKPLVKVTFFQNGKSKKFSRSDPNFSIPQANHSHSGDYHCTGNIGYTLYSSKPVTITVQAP
# B1: GpH7-A5/GpH7-B3 variant L234_02A/GpL16-k0 (antibody, human IgG1, kappa)
# heavy 1: not shown
# heavy 2: not shown
# light: DIVMTQSPLSLPVTPGEPASISCQASESLVHSNRNTYLHWYLQKPGQSPQLLIYKVSNRFSGVPDRFSGSGSGTDFTLKISRVEAEDVGVYYCSQNTHVPPTFGQGTKVEIERTVAAPSVFIFPPSDEQLKSGTASVVCLLNNFYPREAKVQWKVDNALQSGNSQESVTEQDSKDSTYSLSSTLTLSKADYEKHKVYACEVTHQGLSSPVTKSFNRGEC
# notes: heterodimerized IgG1, mutation in one H chain only; also called He Ab
# B2: GpH7-A5/GpH7-B3 variant L234_12R/GpL16-k0 (antibody, human IgG1, kappa)
# heavy 1: not shown
# heavy 2: not shown
# light: B1 light
# notes: as for B1
# B3: GpH7-A5/GpH7-B3 variant L234_11K/GpL16-k0 (antibody, human IgG1, kappa)
# heavy 1: not shown
# heavy 2: not shown
# light: B1 light
# notes: as for B1
# B4: GpH7-A5/GpH7-B3 variant L235_16H/GpL16-k0 (antibody, human IgG1, kappa)
# heavy 1: not shown
# heavy 2: not shown
# light: B1 light
# notes: as for B1
# B5: GpH7-A5/GpH7-B3 variant L235_13S/GpL16-k0 (antibody, human IgG1, kappa)
# heavy 1: not shown
# heavy 2: not shown
# light: B1 light
# notes: as for B1
# B6: GpH7-A5/GpH7-B3 variant L234_05P/GpL16-k0 (antibody, human IgG1, kappa)
# heavy 1: not shown
# heavy 2: not shown
# light: B1 light
# notes: as for B1
# B7: GpH7-A5/GpH7-B3 variant L234_16H/GpL16-k0 (antibody, human IgG1, kappa)
# heavy 1: not shown
# heavy 2: not shown
# light: B1 light
# notes: as for B1
# B8: GpH7-A5/GpH7-B3 variant L235_18N/GpL16-k0 (antibody, human IgG1, kappa)
# heavy 1: not shown
# heavy 2: not shown
# light: B1 light
# notes: as for B1
# B9: GpH7-A5/GpH7-B3 variant L235_01G/GpL16-k0 (antibody, human IgG1, kappa)
# heavy 1: not shown
# heavy 2: not shown
# light: B1 light
# notes: as for B1
# B10: GpH7-A5/GpH7-B3 variant L235_11K/GpL16-k0 (antibody, human IgG1, kappa)
# heavy 1: not shown
# heavy 2: not shown
# light: B1 light
# notes: as for B1
# B11: GpH7-A5/GpH7-B3 variant L234_14T/GpL16-k0 (antibody, human IgG1, kappa)
# heavy 1: not shown
# heavy 2: not shown
# light: B1 light
# notes: as for B1
# B12: GpH7-A5/GpH7-B3 variant L235_19Q/GpL16-k0 (antibody, human IgG1, kappa)
# heavy 1: not shown
# heavy 2: not shown
# light: B1 light
# notes: as for B1
# B13: GpH7-A5/GpH7-B3 variant L235_14T/GpL16-k0 (antibody, human IgG1, kappa)
# heavy 1: not shown
# heavy 2: not shown
# light: B1 light
# notes: as for B1
# B14: GpH7-A5/GpH7-B3 variant L234_19Q/GpL16-k0 (antibody, human IgG1, kappa)
# heavy 1: not shown
# heavy 2: not shown
# light: B1 light
# notes: as for B1
# Biological target: T1, FcγRIIa R (FcγRIIa allotype with Arg at …)
# Test: SPR (Biacore), antibody captured, FcγR analyte; vs GpH7-A5/GpH7-B3/GpL16-k0 = 100
row,He/Con_2aR,Binder
1,79.6 relative (HeCon Ab = 100),B1
2,29.9 relative (HeCon Ab = 100),B2
3,26.8 relative (HeCon Ab = 100),B3
4,94.8 relative (HeCon Ab = 100),B4
5,65.3 relative (HeCon Ab = 100),B5
6,89.6 relative (HeCon Ab = 100),B6
7,71.8 relative (HeCon Ab = 100),B7
8,66.5 relative (HeCon Ab = 100),B8
9,48.5 relative (HeCon Ab = 100),B9
10,10.8 relative (HeCon Ab = 100),B10
11,77.5 relative (HeCon Ab = 100),B11
12,56.2 relative (HeCon Ab = 100),B12
13,60.7 relative (HeCon Ab = 100),B13
14,75.1 relative (HeCon Ab = 100),B14

# Biological target: T2, FcγRIIb, extracellular domain with …
# Test: as above
row,He/Con_2b,Binder
1,64.9 relative (HeCon Ab = 100),B1
2,18.9 relative (HeCon Ab = 100),B2
3,16.2 relative (HeCon Ab = 100),B3
4,76.9 relative (HeCon Ab = 100),B4
5,48.2 relative (HeCon Ab = 100),B5
6,72.9 relative (HeCon Ab = 100),B6
7,59.4 relative (HeCon Ab = 100),B7
8,54.9 relative (HeCon Ab = 100),B8
9,35.4 relative (HeCon Ab = 100),B9
10,6.3 relative (HeCon Ab = 100),B10
11,62.5 relative (HeCon Ab = 100),B11
12,42.6 relative (HeCon Ab = 100),B12
13,46.8 relative (HeCon Ab = 100),B13
14,60.3 relative (HeCon Ab = 100),B14

# Biological target: T1, FcγRIIa R (FcγRIIa allotype with Arg at …)
# Test: SPR (Biacore); He/Con_2aR divided by He/Con_2b, binding to FcγRIIa R against binding to FcγRIIb
# Description: The heterodimerized antibodies He Abs in which one of the H chains was introduced with an alteration were assayed for their binding activities to each activating FcγR and inhibitory FcγR according to the method described in Example 4. […] The activating FcγRs in FIGS. 26, 27, 28, and 29 are FcγRIa, FcγRIIa (R), FcγRIIa (H), and FcγRIIIa, respectively.
# Analysis of interaction between objective antibody and the FcγR was carried out using Biacore T100 (GE Healthcare). HBS-EP+ (GE Healthcare) was used as the running buffer, and the measurement temperature was set to 25° C. Chips produced by immobilizing the antigen peptide by the amine coupling method to a Series S Sencor Chip CM5 (GE Healthcare), or alternatively, chips produced by allowing preliminarily biotinylated antigen peptides to interact with and immobilize onto a Series S Sensor Chip SA (certified) (GE Healthcare) were used. Antibodies of interest were captured onto an antigen peptide-immobilized chip, and allowed to interact to each FcγR diluted with running buffer. To regenerate and repeatedly use the chip, the antibodies captured on the chip were washed off by reacting 10 mM glycine-HCl, pH 1.5.
row,He_2aR/2b (IIaR/IIb),Binder
1,1.23 ratio,B1
2,1.58 ratio,B2
3,1.66 ratio,B3
4,1.23 ratio,B4
5,1.36 ratio,B5
6,1.23 ratio,B6
7,1.21 ratio,B7
8,1.21 ratio,B8
9,1.37 ratio,B9
10,1.72 ratio,B10
11,1.24 ratio,B11
12,1.32 ratio,B12
13,1.3 ratio,B13
14,1.24 ratio,B14
